Values of other authors, collected in US20110015134A1, “Method of treatment for early stage cancer” (priority 2007, published 2011).

Tests used:
[1] = in vivo
[2] = in vivo; remark: listed apart in the source
[3] = at any level, at any concentration
[4] = system: wound healing associated tumor growth; conditions: reported in the literature

Avastin: angiogenesis inhibitor that inhibits VEGF
dose limiting toxicity [1]: some dose limiting toxicity mainly hypertension

Endostatin
half-life [2]: half-life is short
toxicity [3]: never been shown to exhibit toxicity at any level at any concentration

O=S1(=O)CCN(CN2CCS(=O)(=O)NC2)CN1 [Taurolidine]
prevention of wound healing associated / surgery induced tumor growth [4]: can prevent surgery induced tumor growth

COc1ccc2c(c1)c(CC(=O)O)c(C)n2C(=O)c1ccc(Cl)cc1 [Indomethacin]
prevention of wound healing associated / surgery induced tumor growth [4]: effective in preventing wound healing associated tumor growth
